Laboratory results: article PMC10247859, “Replisome-cohesin interactions provided by the Tof1-Csm3 and Mrc1 cohesion establishment factors” (Chromosoma, 2023)

Columns and labels:
Conditions in all cases: both partners purified
[1] = biological target: T1, Scc3 (S. cerevisiae (budding yeast), UniProt P40541 1-1150); assay: cross-linking; CLMS with sulfo-SDA; cohesin, Tof1-Csm3 and Chl1 with or without Mrc1 at 300-350 nM, 30 °C 5 min, cross-linker 2 h at 4 °C, UV 365 nm; LC-MS/MS, 1% FDR at residue-pair level; two samples merged
T1 construct: Scc3, budding yeast; the Scc3 chain of m1; Stood in the cross-linking sample as a chain of cohesin; source: purified as part of cohesin, as previously described (Minamino et al. 2018)
T1 sequence (looked up): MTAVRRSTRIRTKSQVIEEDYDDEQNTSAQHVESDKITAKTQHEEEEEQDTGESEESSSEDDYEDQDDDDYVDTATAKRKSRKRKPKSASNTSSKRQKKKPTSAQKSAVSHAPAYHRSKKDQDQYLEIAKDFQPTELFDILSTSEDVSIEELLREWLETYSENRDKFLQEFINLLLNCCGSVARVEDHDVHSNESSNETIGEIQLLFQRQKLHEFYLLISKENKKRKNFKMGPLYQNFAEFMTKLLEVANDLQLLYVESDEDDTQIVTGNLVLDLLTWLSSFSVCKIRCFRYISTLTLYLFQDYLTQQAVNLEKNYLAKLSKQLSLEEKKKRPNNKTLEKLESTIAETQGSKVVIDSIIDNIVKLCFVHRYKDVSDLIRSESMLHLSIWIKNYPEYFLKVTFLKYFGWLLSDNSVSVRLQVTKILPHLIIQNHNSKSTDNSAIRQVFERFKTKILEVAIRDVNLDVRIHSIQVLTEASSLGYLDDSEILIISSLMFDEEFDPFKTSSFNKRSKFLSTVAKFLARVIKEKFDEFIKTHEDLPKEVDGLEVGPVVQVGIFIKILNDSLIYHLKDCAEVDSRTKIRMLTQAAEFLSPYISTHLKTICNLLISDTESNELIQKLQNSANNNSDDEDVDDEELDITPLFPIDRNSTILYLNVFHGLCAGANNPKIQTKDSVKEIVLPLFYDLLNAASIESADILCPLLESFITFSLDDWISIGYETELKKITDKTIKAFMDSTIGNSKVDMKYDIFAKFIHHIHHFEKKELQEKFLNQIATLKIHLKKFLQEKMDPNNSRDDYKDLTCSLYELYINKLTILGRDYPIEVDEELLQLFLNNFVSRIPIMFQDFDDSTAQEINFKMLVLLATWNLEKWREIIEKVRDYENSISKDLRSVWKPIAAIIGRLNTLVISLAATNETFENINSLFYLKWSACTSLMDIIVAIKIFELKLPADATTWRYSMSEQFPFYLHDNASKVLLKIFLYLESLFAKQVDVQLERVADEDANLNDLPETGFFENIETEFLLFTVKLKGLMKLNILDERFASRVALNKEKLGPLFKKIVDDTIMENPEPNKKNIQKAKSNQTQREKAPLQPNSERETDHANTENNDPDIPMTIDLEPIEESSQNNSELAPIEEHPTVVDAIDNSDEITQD

[2] = biological target: T2, Tof1-Csm3 complex (S. cerevisiae (budding yeast), UniProt P53840 1-1238; Q04659 1-317); assay: pull-down; Flag-tagged Mrc1 (200-600 nM) held on anti-Flag M2 magnetic beads; with or without a first incubation with Tof1-Csm3, then cohesin (tetramer, trimer or Smc1-Smc3 dimer) or GINS; interaction buffer with 100 mM potassium glutamate; elution with 3x Flag peptide or SDS sample buffer; Coomassie staining; benzonase or NaCl added where indicated
T2 construct: Tof1, budding yeast; Csm3, budding yeast; Held on calmodulin dynabeads when used as bait; source: purified as previously described (Yeeles et al. 2017)

[3] = biological target: T3, cohesin trimer (Smc1-Smc3-Scc1) (S. cerevisiae (budding yeast), UniProt P32908 1-1225; P47037 1-1230; Q12158 1-566); assay: as above
T3 construct: Smc1, cohesin subunit, budding yeast; Smc3, cohesin subunit, budding yeast; Scc1, cohesin subunit, budding yeast; source: purified following the same protocol as cohesin tetramers (IgG agarose, 3C protease cleavage); copies: + +

[4] = biological target: T4, Smc1-Smc3 dimer (S. cerevisiae (budding yeast), UniProt P32908 1-1225; P47037 1-1230); assay: as above
T4 construct: Smc1, cohesin subunit, budding yeast; Smc3, cohesin subunit, budding yeast; also called SMC dimer; SMC dimers (Smc1-Smc3); source: purified following the same protocol as cohesin tetramers (IgG agarose, 3C protease cleavage); not shown: Protein A, C-terminal, cleaved

Measured: binding result

T2 sequence (P53840 whole entry, chain 1 of 2): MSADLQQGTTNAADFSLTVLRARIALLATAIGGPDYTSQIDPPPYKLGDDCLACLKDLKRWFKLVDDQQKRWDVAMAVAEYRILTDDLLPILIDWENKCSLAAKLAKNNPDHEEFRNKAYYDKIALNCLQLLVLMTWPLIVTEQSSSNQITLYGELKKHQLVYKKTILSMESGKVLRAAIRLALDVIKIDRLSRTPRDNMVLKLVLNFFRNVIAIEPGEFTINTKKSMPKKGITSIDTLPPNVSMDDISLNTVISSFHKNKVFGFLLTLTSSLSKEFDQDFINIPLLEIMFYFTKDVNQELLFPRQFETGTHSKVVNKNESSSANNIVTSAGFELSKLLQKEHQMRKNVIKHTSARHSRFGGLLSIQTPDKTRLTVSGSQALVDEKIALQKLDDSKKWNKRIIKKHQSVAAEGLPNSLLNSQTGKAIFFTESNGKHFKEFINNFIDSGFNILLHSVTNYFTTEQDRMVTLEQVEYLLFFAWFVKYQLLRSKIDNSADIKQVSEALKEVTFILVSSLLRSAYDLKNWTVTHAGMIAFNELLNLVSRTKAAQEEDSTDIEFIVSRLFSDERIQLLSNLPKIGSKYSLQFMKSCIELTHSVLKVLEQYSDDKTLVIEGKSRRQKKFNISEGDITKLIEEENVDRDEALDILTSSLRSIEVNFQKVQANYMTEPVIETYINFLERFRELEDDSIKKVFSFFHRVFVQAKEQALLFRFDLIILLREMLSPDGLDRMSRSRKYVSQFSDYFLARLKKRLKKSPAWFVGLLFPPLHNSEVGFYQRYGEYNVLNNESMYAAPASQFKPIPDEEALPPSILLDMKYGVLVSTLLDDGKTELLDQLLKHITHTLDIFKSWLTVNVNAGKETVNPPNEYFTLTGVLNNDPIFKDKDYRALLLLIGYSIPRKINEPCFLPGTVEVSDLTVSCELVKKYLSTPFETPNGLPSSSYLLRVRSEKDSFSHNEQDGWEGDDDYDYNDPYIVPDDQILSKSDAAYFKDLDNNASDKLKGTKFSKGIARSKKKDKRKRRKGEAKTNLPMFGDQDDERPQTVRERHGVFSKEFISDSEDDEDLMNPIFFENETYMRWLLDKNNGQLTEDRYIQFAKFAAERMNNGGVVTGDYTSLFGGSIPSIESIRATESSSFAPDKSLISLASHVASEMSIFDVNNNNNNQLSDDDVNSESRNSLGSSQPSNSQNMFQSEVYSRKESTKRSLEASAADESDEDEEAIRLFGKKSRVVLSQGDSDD
T2 sequence (Q04659 whole entry, chain 2 of 2): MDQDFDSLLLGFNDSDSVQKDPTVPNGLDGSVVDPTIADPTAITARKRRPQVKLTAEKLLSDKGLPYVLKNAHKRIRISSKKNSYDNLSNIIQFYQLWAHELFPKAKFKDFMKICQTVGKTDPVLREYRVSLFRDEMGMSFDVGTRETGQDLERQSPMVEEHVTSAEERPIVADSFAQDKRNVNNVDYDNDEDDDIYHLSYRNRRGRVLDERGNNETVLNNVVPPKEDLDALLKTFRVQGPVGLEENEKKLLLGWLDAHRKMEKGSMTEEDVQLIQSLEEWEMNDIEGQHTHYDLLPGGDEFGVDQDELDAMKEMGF
T3 sequence (P32908 whole entry, chain 1 of 3): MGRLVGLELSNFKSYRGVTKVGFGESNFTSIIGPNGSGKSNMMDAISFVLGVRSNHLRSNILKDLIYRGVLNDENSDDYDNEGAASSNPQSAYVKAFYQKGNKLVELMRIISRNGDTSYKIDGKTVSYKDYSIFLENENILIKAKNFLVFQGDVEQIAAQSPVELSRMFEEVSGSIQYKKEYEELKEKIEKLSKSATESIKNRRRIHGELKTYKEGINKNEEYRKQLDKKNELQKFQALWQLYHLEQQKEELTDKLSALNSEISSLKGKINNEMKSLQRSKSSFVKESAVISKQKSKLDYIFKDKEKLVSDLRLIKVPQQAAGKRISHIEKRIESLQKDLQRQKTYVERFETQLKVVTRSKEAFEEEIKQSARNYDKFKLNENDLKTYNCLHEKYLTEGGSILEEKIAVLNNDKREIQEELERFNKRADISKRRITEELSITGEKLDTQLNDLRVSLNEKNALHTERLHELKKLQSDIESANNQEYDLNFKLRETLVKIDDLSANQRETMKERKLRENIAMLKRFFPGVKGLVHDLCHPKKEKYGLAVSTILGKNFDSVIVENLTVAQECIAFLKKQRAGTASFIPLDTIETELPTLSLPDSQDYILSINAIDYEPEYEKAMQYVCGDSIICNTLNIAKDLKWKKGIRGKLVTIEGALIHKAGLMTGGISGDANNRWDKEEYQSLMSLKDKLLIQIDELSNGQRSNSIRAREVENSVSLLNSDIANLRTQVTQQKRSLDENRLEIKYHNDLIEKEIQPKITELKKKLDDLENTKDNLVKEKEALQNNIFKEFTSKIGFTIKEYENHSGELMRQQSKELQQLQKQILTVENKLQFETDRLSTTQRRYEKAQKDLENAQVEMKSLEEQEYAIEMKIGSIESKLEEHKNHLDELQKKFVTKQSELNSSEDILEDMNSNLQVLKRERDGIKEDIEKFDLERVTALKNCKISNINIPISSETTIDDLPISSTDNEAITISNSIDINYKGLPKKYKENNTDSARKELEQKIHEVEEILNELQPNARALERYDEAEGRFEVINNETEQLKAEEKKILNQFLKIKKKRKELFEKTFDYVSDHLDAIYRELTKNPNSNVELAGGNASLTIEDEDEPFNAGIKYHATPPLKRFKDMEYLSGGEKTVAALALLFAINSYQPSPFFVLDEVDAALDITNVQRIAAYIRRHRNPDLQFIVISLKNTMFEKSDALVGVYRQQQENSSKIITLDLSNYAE
T3 sequence (P47037 whole entry, chain 2 of 3): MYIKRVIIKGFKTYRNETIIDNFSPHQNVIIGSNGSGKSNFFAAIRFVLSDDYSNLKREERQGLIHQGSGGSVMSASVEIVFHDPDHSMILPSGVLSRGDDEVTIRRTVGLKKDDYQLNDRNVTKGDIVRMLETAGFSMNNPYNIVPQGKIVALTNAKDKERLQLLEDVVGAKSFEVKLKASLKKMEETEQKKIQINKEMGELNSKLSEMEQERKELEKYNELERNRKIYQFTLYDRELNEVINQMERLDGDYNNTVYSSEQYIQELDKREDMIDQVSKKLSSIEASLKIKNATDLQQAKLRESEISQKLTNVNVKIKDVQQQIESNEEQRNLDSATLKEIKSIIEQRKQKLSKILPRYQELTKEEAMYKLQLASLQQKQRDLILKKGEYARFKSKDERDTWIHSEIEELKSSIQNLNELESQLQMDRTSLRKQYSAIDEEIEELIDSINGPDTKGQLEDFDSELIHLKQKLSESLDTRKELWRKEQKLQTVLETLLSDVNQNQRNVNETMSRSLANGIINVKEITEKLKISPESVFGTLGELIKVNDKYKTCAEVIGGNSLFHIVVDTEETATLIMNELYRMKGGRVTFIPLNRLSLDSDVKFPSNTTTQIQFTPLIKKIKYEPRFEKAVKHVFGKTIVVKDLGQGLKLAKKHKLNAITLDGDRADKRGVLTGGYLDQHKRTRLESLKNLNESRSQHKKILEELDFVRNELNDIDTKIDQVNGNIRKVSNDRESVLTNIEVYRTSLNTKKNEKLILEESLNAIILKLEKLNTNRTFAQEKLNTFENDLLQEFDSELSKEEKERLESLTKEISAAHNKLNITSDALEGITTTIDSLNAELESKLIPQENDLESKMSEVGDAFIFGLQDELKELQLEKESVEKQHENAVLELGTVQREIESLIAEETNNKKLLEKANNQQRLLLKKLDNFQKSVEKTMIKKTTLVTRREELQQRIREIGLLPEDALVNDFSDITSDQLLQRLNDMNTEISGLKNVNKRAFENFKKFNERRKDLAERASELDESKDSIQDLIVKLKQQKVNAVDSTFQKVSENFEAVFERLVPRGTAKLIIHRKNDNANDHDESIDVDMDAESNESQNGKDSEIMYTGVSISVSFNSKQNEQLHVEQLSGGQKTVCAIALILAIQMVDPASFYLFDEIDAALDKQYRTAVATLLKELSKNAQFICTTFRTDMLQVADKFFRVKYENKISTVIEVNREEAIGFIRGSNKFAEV
T3 sequence (Q12158 whole entry, chain 3 of 3): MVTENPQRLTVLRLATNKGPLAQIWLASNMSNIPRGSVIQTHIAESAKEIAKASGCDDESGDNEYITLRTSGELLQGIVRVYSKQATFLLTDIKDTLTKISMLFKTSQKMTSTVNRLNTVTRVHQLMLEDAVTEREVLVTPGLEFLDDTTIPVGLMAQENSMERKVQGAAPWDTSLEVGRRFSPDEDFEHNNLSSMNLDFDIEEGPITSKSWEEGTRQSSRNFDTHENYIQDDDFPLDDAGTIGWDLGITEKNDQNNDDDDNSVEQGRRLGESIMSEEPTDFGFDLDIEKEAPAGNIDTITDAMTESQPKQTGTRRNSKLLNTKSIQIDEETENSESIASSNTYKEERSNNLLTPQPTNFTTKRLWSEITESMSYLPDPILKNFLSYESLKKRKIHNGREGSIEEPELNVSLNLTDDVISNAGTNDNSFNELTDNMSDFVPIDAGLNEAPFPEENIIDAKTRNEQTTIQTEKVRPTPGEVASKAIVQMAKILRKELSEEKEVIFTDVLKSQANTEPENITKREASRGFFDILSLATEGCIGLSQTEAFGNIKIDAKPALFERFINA
T4 sequence (P32908 whole entry, chain 1 of 2): as the sequence (P32908 whole entry, chain 1 of 3) above
T4 sequence (P47037 whole entry, chain 2 of 2): as the sequence (P47037 whole entry, chain 2 of 3) above

B1: Mrc1 (natural protein, S. cerevisiae (budding yeast), UniProt P25588 1-1096, looked up)
chain: MDDALHALSSLTAKKRTTTYKKVAVPILDENDNTNGNGPNDIDNPPELTGNGFLFANATLNRVKNRLEGKKAPEQNHNNGKDRSENSLPTQLISNLYDGGEELEKSEVKDNSYSEKNVSSSFTQTQRIPVSIQQDKVFNVPIHSVNDGKPTQLIKEDGLVNETSQALKTPLTTGRPGATQRIDSSGATSQTQPIKSIEPQSQIITTSSNHSNALSPKIPIIPTELIGTSPLFQSIQNRGPDTQMDVPPQTAHDEDKTQAIGIPQATHQEQKTQIDTVAQTLQDEVPHTLKIREIQSELASEDSKREKARNVEYKKPQKPIPTKKFFSKESFLADFDDSSSNEDDDIKLENAHPKPVQNDDELHENKSVELNLTDETRINEKRVPLLSSYANNLKREIDSSKCITLDLDSDSDEYGDDDMDSIKLSKDESVLPISQLSKATILNLKARLSKQNQKLSQRPNKSKDPKVDHNVLLNTLRKASRKQILDHQKEVIETKGLKLEDMAKEKEIVENLLEQEILRNKRIRQKEKRREKLEENDFQLNAHDSGSDSGSESSGFALSGNEIADYESSGSENDNRRESDSEKEDDEIILKQKKSHHVKHIINESDSDTEVEAKPKEKADESLPKRIAINLGHYGDNIGEDTDKFQETNVLDTQNIEEVMAERNTIENEVKDDVYVNEEADEAIRRQLIDKEKLQLKQKEKEHEAKIKELKKRGVTNFFEMEAEESEDEWHGIGGADGEGSDDYDSDLEKMIDDYSKNNFNPHEIREMLAAENKEMDIKMINKILYDIKNGGFRNKRAKNSLELELSDDDEDDVLQQYRLKRRELMRKRRLEIGDDAKLVKNPKSSAFFESMVEDIIEYKNPFGAEEEYNLDITSTATDLDTQDNSINVGDNTGNNEQKPVDQKNKKVIISEDFVQKSLSFLKSNNYEDFETDKELSRIQHGNDEAIEDLYTLKQNSSIKSFTNSQTDSTTSKTVNTIIDLEKRPEDEDEVENGDTSLVGVFKHPSIIKSFASRTDINDKFKEGNKTVKILKSYKTVGSSKASITYMGKTRKLIAPKRKTEGSHRYHHDHHNKKMKMKTKTKSNKLFESGQDSFDN
notes: Mrc1, budding yeast; also called Flag-tagged Mrc1; source: purified as previously described (Yeeles et al. 2017)
binds: [1] | [2] | [3] | [4]
